B1: hIL-15 V49R/D30A (ligand)
chain: NWVNVISDLKKIEDLIQSMHIDATLYTESAVHPSCKVTAMKCFLLELQRISLESGDASIHDTVENLIILANNSLSSNGNVTESGCKECEELEEKNIKEFLQSFVHIVQMFINTGGGGSGHHHHHHHHGGGLNDIFEAQKIEWHE
B2: hIL-15 V49R/D30E (ligand)
chain: B1 chain with A30E
B3: hIL-15 V49R/S7P (ligand)
chain: B1 chain with S7P, A30D
B4: hIL-15 V49R/D61A (ligand)
chain: B1 chain with A30D, D61A
B5: hIL-15 V49R/D30S (ligand)
chain: B1 chain with A30S
B6: hIL-15 V49R/L69Y (ligand)
chain: B1 chain with A30D, L69Y
B7: hIL-15 V49R/I68Q (ligand)
chain: B1 chain with A30D, I68Q
B8: hIL-15 V49R/L69H (ligand)
chain: B1 chain with A30D, L69H
B9: hIL-15 V49R/L69R (ligand)
chain: B1 chain with A30D, L69R
B10: hIL-15 V49R/L69Q (ligand)
chain: B1 chain with A30D, L69Q
B11: hIL-15 V49R/N4P (ligand)
chain: B1 chain with N4P, A30D
B12: hIL-15 V49R/E64A (ligand)
chain: B1 chain with A30D, E64A
B13: hIL-15 V49R/E64D (ligand)
chain: B1 chain with A30D, E64D
B14: hIL-15 V49R/D30F (ligand)
chain: B1 chain with A30F
B15: hIL-15 V49R/D30I (ligand)
chain: B1 chain with A30I
B16: hIL-15 V49R/I68G (ligand)
chain: B1 chain with A30D, I68G
B17: hIL-15 V49R/D30R (ligand)
chain: B1 chain with A30R
B18: hIL-15 V49R/I68E (ligand)
chain: B1 chain with A30D, I68E
B19: hIL-15 V49R/D30N (ligand)
chain: B1 chain with A30N
B20: hIL-15 V49R/L69N (ligand)
chain: B1 chain with A30D, L69N
B21: hIL-15 V49R/D30M (ligand)
chain: B1 chain with A30M
B22: hIL-15 V49R/D30H (ligand)
chain: B1 chain with A30H
B23: hIL-15 V49R/D30V (ligand)
chain: B1 chain with A30V
B24: hIL-15 V49R/N4R (ligand)
chain: B1 chain with N4R, A30D
B25: hIL-15 V49R/N4T (ligand)
chain: B1 chain with N4T, A30D
B26: hIL-15 V49R/I68W (ligand)
chain: B1 chain with A30D, I68W
B27: hIL-15 V49R/D30K (ligand)
chain: B1 chain with A30K
B28: hIL-15 V49R/D30Q (ligand)
chain: B1 chain with A30Q
B29: hIL-15 V49R/D30T (ligand)
chain: B1 chain with A30T
B30: hIL-15 V49R/D30Y (ligand)
chain: B1 chain with A30Y
B31: hIL-15 V49R/D30L (ligand)
chain: B1 chain with A30L
B32: hIL-15 V49R/L69F (ligand)
chain: B1 chain with A30D, L69F
B33: hIL-15 V49R/K11F (ligand)
chain: B1 chain with K11F, A30D
B34: hIL-15 V49R/N4F (ligand)
chain: B1 chain with N4F, A30D
B35: hIL-15 V49R/D30W (ligand)
chain: B1 chain with A30W
B36: hIL-15 V49R/H32T (ligand)
chain: B1 chain with A30D, H32T
B37: hIL-15 V49R/K11M (ligand)
chain: B1 chain with K11M, A30D
B38: hIL-15 V49R/H32W (ligand)
chain: B1 chain with A30D, H32W

Where a chain is given by its changes, count along the chain named. Names and notes keep the numbering of the source.

For the first assay, the target named is T1, human IL-15Rα (human, UniProt Q13261 31-205, limits assumed).
T1 construct: also called hIL-15Rα; IL-15 receptor alpha
T1 sequence (Q13261 31-205 limits assumed): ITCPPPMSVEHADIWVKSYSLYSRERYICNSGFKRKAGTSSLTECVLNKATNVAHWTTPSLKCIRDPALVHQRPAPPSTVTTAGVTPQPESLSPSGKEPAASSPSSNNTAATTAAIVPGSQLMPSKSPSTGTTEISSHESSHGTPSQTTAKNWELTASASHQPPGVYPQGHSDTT
The experiment in a line: SPR, steady state.
B1 had a Kd of 151 nM. This lies in the sub-micromolar range.
With B2, the Kd was 124 nM.
The same measure, in the same setting: as for B3, the figure is above 500 nM; as for B4, 78.2 nM.
Regarding B5, the affinity, expressed as Kd, was 146 nM.
On the same count and under the same terms, as for B6, the figure is 137 nM; as for B7, 132 nM; as for B8, 54.5 nM.
B9: the Kd turned out to be 111 nM.
As to B10, the Kd was around 43.3 nM.
In turn, B11 came in with a Kd of 356 nM.
With B12, the Kd came to 130 nM.
B13: binding was characterised by a dissociation constant (Kd) of 108 nM.
The same measure, in the same setting: as for B14, the figure is 166 nM.
Take B15: the Kd amounted to 197 nM.
The same measure, in the same setting: as for B16, the figure is 101 nM; as for B17, 155 nM; as for B18, 122 nM.
Same read-out and setting: in the case of B19 it was 94 nM; in that of B20, 44 nM.
B21 came in with a Kd of 142 nM.
B22: binding was put at a Kd of 121 nM.
B23: the Kd was 153 nM.
Still for that read-out and setting: in the case of B24 it was 56.1 nM; in that of B25, around 88.6 nM.
With B26, the affinity, expressed as Kd, was 93.7 nM.
In turn, B27 had a Kd of 158 nM.
B28 displayed a Kd of 111 nM.
B29 returned a Kd of 184 nM.
Same read-out and setting: in the case of B30 it was 159 nM; in that of B31, 237 nM.
On the same count and under the same terms, in the case of B32 it was 106 nM.

For another assay, the target named is T2, human IL-2Rβ (human, UniProt P14784 27-240, limits assumed).
T2 construct: also called hIL-2Rβ; IL-2 receptor beta
T2 sequence (looked up): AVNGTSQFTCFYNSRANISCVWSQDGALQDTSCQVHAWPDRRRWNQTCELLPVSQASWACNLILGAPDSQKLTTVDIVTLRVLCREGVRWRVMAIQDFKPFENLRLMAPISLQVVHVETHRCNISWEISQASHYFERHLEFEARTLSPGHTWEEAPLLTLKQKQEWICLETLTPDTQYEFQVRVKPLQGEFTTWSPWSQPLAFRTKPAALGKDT
Put plainly: SPR, steady state.
Molecule B1 displayed a Kd of 273 nM.
Same read-out and setting: in the case of B2 it was 165 nM.
Regarding B4, the Kd is above 500 nM.
On the same count and under the same terms, in the case of B5 it was 249 nM; in that of B12, above 500 nM.
In the case of B33, the Kd was determined as 162 nM.
The same measure, in the same setting: as for B13, the figure is 291 nM; as for B14, 213 nM; as for B15, 201 nM.
Molecule B34 showed a Kd of 247 nM.
Still for that read-out and setting: in the case of B17 it was 290 nM; in that of B19, 163 nM.
On the same count and under the same terms, as for B21, the figure is 238 nM.
On to B22, for which the Kd came out at 149 nM.
Same read-out and setting: as for B23, the figure is 258 nM; as for B35, 321 nM.
Regarding B36, the affinity, expressed as Kd, was 186 nM.
The same measure, in the same setting: in the case of B37 it was 180 nM; in that of B27, 351 nM; in that of B28, 197 nM.
On the same count and under the same terms, in the case of B38 it was 376 nM; in that of B29, 269 nM; in that of B30, 231 nM.
On to B31, for which the Kd is 277 nM.
